T1: GST-tagged wild-type NRDE2 (human, UniProt Q9H7Z3 1-1164)
T1 sequence: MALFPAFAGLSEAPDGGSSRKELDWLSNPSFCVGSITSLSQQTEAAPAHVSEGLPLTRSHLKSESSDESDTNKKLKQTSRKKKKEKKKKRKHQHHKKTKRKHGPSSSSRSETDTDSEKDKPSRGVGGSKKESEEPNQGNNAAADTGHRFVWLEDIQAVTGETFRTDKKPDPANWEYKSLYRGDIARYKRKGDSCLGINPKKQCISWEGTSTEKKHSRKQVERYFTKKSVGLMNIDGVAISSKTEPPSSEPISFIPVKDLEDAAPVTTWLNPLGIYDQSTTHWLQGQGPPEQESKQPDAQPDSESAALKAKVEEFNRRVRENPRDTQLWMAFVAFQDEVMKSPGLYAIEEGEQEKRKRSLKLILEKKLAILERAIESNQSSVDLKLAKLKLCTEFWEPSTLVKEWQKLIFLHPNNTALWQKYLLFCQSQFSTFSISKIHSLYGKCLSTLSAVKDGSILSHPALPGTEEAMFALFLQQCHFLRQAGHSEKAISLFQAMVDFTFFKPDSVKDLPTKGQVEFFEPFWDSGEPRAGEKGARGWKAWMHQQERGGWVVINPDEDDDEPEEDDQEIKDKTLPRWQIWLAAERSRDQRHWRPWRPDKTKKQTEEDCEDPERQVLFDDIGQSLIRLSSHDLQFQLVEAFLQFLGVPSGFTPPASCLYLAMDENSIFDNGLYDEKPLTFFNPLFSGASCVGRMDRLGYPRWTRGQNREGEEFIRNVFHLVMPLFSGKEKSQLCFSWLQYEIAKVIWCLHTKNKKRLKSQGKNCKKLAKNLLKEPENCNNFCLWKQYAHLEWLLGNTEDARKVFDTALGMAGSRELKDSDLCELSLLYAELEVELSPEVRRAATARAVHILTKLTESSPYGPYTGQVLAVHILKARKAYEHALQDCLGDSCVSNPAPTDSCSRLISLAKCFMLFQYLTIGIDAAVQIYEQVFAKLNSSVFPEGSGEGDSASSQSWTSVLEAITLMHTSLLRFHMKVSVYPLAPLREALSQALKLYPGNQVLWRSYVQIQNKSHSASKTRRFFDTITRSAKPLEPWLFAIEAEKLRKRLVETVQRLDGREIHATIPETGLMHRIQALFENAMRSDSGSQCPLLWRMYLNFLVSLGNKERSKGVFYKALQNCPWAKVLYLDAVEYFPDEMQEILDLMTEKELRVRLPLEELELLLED


Biological target: T1, GST-tagged wild-type NRDE2
Assay: pull-down

binding result	Binder
binds	His-tagged CK2B (natural protein) not shown
binds	His-tagged CK2A2 (natural protein) MPGPAAGSRARVYAEVNSLRSREYWDYEAHVPSWGNQDDYQLVRKLGRGKYSEVFEAINITNNERVVVKILKPVKKKKIKREVKILENLRGGTNIIKLIDTVKDPVSKTPALVFEYINNTDFKQLYQILTDFDIRFYMYELLKALDYCHSKGIMHRDVKPHNVMIDHQQKKLRLIDWGLAEFYHPAQEYNVRVASRYFKGPELLVDYQMYDYSLDMWSLGCMLASMIFRREPFFHGQDNYDQLVRIAKVLGTEELYGYLKKYHIDLDPHFNDILGQHSRKRWENFIHSENRHLVSPEALDLLDKLLRYDHQQRLTAKEAMEHPYFYPVVKEQSQPCADNAVLSSGLTAAR

Source: publication PMC11099347 (Cell Genomics, 2024)
